# In patent US20250019454A1 (BIOCYTOGEN PHARMACEUTICALS BEIJING, published 2025):
# T1: ΔCRD3-TNFR2 protein (with CRD3 deletion), on CHO-S cells (human, UniProt P20333 23-461)
# T1 construct: also called CHO-SΔCRD3-TNFR2; TNFR2 lacking CRD3
# T1 sequence: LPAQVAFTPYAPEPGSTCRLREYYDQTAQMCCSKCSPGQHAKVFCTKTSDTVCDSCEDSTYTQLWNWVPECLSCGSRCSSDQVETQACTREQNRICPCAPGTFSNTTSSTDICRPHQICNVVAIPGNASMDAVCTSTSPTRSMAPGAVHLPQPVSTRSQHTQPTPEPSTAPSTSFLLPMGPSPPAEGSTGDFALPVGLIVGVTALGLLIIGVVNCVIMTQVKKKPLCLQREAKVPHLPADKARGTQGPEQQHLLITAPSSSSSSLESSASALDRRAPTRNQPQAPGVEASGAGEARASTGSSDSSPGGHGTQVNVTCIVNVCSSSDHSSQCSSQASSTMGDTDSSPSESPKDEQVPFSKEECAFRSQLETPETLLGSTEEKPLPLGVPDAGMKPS
# T2: ΔCRD1-TNFR2 protein (with CRD1 deletion), on CHO-S cells (human, UniProt P20333 23-461)
# T2 construct: also called CHO-SΔCRD1-TNFR2
# T2 sequence: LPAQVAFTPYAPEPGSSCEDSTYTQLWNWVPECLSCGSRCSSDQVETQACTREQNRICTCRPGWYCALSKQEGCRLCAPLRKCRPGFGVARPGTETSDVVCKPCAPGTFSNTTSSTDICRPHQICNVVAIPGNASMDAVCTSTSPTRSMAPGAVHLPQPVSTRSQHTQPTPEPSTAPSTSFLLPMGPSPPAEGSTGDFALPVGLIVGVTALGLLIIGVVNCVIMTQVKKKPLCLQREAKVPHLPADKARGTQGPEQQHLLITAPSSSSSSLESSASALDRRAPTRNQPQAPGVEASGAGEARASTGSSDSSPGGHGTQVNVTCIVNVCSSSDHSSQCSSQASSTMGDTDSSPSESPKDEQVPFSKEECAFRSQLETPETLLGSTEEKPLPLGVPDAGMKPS
# T3: human TNFR2 (expressed on cells) (human, UniProt P20333 23-461)
# T3 construct: also called hTNFR2; human TNF Receptor 2
# T3 sequence: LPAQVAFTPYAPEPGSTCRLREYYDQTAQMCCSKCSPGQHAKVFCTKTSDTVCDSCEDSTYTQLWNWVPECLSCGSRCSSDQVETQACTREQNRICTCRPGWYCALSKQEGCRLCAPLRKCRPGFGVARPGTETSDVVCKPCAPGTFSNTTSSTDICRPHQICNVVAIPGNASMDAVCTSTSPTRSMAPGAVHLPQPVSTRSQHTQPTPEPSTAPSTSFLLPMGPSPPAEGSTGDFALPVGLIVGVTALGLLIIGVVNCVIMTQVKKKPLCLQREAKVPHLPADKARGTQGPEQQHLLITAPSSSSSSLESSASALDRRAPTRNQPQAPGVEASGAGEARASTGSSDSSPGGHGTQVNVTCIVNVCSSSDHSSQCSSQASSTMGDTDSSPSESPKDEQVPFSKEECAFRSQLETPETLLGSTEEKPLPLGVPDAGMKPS
# T4: His-tagged monkey (Crab-eating monkey) TNFR2 (Sino Biological, Cat #: 90102-C08H) (monkey (Crab-eating monkey), UniProt P20333 27-257 (human entry))
# T4 construct: Bought protein; also called fTNFR2-His; not shown: His tag
# T4 chain: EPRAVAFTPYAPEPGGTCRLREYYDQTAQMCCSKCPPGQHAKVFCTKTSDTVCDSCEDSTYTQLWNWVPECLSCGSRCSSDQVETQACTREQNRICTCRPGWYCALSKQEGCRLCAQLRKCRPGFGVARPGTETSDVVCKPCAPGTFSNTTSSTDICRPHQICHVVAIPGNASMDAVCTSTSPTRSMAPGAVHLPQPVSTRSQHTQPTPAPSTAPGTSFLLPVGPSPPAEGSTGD
# Experiments:
# [1] = molecular target: T1, ΔCRD3-TNFR2 protein (with CRD3 …); test: FACS on CHO-S cells with ΔCRD3-TNFR2
# Text: (§1) TNFR2 has four cysteine rich domains (CRD). In another experiment, FACS was used to detect the binding of anti-hTNFR2 antibodies to TNFR2 proteins with different structural domains. Secondary antibody (Alexa Fluor® 647 AffiniPure F(ab′) 2 Fragment Goat Anti-Human IgG, Fcγ fragment specific, Jackson ImmunoResearch Laboratories, Inc., Cat #: 151524) was used. The fluorescence-labeled secondary antibody can attach to the Fc region of the anti-hTNFR2 antibodies so that the anti-hTNFR2 antibodies that are bound to the ΔCRD cells can be detected by FACS. Specifically, ΔCRD1-TNFR2 protein (with CRD1 deleteion), ΔCRD2-TNFR2 protein (with CRD2 deleteion), ΔCRD3-TNFR2 protein (with CRD3 deleteion) or ΔCRD4-TNFR2 protein (with CRD4 deleteion) were expressed in CHO-S cells respectively, and then the binding between the cells and different anti-hTNFR2 antibodies was detected.
# [2] = molecular target: T2, ΔCRD1-TNFR2 protein (with CRD1 …); test: FACS on CHO-S cells with ΔCRD1-TNFR2, AF647 anti-human IgG Fc secondary
# Text: as §1
# [3] = molecular target: T3, human TNFR2 (expressed on cells); test: flow cytometry competition, CHO cells with human TNFR2, antibody 2.5 µg/mL, Biotin-hTNFα 0.5 µg/mL
# Experimental: (§2) 30 μl of Biotin-hTNFα (Acro Biosystems, Cat #: TNA-H82E1) was added to each well (with a final concentration of 0.5 μg/mL in each well). The cells with Biotin-hTNFα and the antibodies were incubated at 4° C. for 30 minutes.
# (§3) The signals for AF647 and PE were determined by flow cytometry (Thermo Attune NX).
# [4] = molecular target: T3, human TNFR2 (expressed on cells); test: flow cytometry competition, CHO cells with human TNFR2, antibody 0.625 µg/mL, Biotin-hTNFα 0.5 µg/mL
# Experimental: as §2, §3
# [5] = molecular target: T3, human TNFR2 (expressed on cells); test: flow cytometry competition, CHO cells with human TNFR2, antibody 0.1565 µg/mL, Biotin-hTNFα 0.5 µg/mL
# Experimental: as §2, §3
# [6] = molecular target: T4, His-tagged monkey (Crab-eating monkey) …; test: SPR Biacore 8K, antibody captured on Protein A chip, fTNFR2-His as analyte
# Experimental: Purified anti-TNFR2 antibodies were diluted to 1 μg/mL and then injected into the Biacore 8K biosensor at 10 μL/min for about 50 seconds to achieve a desired protein density (e.g., about 50 response units (RU)). […] Dissociation was monitored for 600 seconds. The chip was regenerated after the last injection of each titration with Glycine (pH 2.0, 30 μL/min for 30 seconds).
# Similar to the aforementioned binding affinity experiment, the binding affinities of the anti-TNFR2 antibodies BC-1B6-IgG1, BC-1C3-IgG1 and BC-1F4-IgG1 to His-tagged monkey (Crab-eating monkey) TNFR2 (fTNFR2-His, Sino Biological, Cat #: 90102-C08H) were measured.
binding result [1],positive rate of binding (% of cells) [2] [%],percentage of tested cells that had Streptavidin signals [3] [%],percentage of tested cells that had Streptavidin signals [4] [%],percentage of tested cells that had Streptavidin signals [5] [%],Kd [6] [nM],koff [6] [s⁻¹],kon [6] [M⁻¹ s⁻¹],Binder
no binding,64.6,29.9,58.6,67.4,,,,"BC-1A8-IgG1 (antibody, V domains shown, Fully human VH/VL joined to the human IgG1 subtype, kappa light chain (RenMab mice)) VH: QVQLQQSGPGLVKPSQTLSLTCAISGDSVSSNSAAWNWIRQSPSRGLEWLGRTYYRSKWYNDYALSVKSRITINPETSKNQFSLQLNSVTPEDTAVYYCAREDGVGGTKDYFDYWGQGTLVTVSS VL: DIQMTQSPSSLSASVGDRVTITCQASQDIDNYLNWYQQKPGKAPKLLIYDVSNLEIGVPSRFSGSGSGTDFTFTISSLQPEDIATYYCQQYDNLPLTFGQGTRLEIK"
no binding,53.1,59.5,61.9,76.2,20.1,0.0109,541000,"BC-1F4-IgG1 (antibody, V domains shown, Human VH/VL joined to the human IgG1 subtype) VH: QVQLQQSGPGLVKPSQTLSLTCAISGDSVSSDSSAWNWIRQSPSRGLEWLGRTYYRSKWYNDYTVSVKSRITINPDTSKNQFSLQLNSVTPEDTAVYYCAREDGVGGTKDYFDYWGQGTLVTVSS VL: DIQMTQSPSSLSASVGDRVTITCQASQDISNYLNWYQQKPGKAPKLLIYDASNLETGVPSRFSGSGSGTDFTFTINSLQPEDFATYFCQQYDNLPITFGQGTRLEIK"
,55.3,54.5,60.2,55.2,,,,"BC-1F10-IgG1 (antibody, V domains shown, Human VH/VL joined to the human IgG1 subtype) VH: QVQLQQWGAGLLKPSETLSLICAVYDGSFSGDYWSWIRQPPGKGLEWIGEINHSGSTNYNPSLKSRVTISVDTSKNQFSLKLSSVTAADTAVYYCARGHWNYDYYYGMDVWGQGTTVTVSS VL: not shown"
,,87.2,80.4,82.7,17.5,0.00547,313000,"BC-1B6-IgG1 (antibody, V domains shown, Human VH/VL joined to the human IgG1 subtype) VH: QVQLVESGGGVVQPGRSLRLSCAASGFTFSNFGMHWVRQAPGKGLEWVAVIWYEGSDKYYADSVKGRFTISRDNSKNTLYLQMNSLRAEDTAVYYCARDSSWGFLLYGMDVWGQGTTVTVSS VL: DVVMTQSPLSLPVTLGQPASISCRSSRSLEYSDGNTYLNWFQQRPGQSPRRLIYKVSNRDSGVPDRFSGSGSGTAFTLKISGVEAEDVGVYYCMQGTHWPPTFGGGTKVEIK"
no binding,72.6,81.5,77.3,74.3,118,0.0221,187000,"BC-1C3-IgG1 (antibody, V domains shown, Human VH/VL joined to the human IgG1 subtype) VH: QVQLVESGGGVVHPGKSLRLSCAASGFTFNIYGMHWVRQAPGKGLEWVALISYDGNDKYFADSVKGRFTISRDNSKNTLYLQMNSLRAEDTAVYYCAKAVDTAVVTFFDYWGQGTLVTVSS VL: EIVMTQSPVTLSVSPGERATLSCRASQSVSSNLAWYQQKPGQAPRLLIYSASTRATGIPARFSGSGSGTEFTLTISSLQSEDLAVYYCQQYSNWPFTFGPGTKVDIK"
